Target: T1, trem2_human TREM2 (UniProt Q9NZC2)
T1 sequence: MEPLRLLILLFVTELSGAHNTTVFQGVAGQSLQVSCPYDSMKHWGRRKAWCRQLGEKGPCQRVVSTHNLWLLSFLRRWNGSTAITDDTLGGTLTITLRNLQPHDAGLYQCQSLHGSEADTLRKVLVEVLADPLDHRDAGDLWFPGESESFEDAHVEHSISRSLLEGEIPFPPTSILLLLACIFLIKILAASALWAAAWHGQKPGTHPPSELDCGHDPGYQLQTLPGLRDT

effect of a mutation on the interaction: with no effect
Substance: Presenilin-1 (Homo sapiens) (from UniProt P49768) D385A
